Measured values taken from patent publication US20210277411.

Tests used:
Assay in all cases: cell_activity
[1] = tested on: TALE nuclease pair BnFAD2_T02 (synthetic construct); conditions: Westar protoplasts
[2] = tested on: TALE nuclease pair BnFAD2_T03 (synthetic construct); conditions: Westar protoplasts
[3] = tested on: TALE nuclease pair BnFAD2_T05 (synthetic construct)
[4] = tested on: TALE nuclease pair BnFAD2_T07 (synthetic construct); conditions: Westar protoplasts
[5] = tested on: TALE nuclease pair BnFAD2_T01 (synthetic construct); conditions: Westar protoplasts

Work on “TCGTCCCTTACTTCTCCTGGAAGTACAGTCATCGACGCCACCATTCCAA (double strand) [BnFAD2_T02 site in BnaA/BnaC.FAD2.a (SEQ ID NO:9)]” yielded an activity (% mutagenesis) ([1]; BnaA.FAD2.a) of 9.7 and an activity (% mutagenesis) ([1]; BnaC.FAD2.a) of 10.3.

For “TGCGAGACACCGCCCTTCACTGTCGGAGAACTCAAGAAAGCAATCCCA (double strand) [BnFAD2_T03 site in BnaA/BnaC.FAD2.a (SEQ ID NO:10)]”, the activity (% mutagenesis) ([2]; BnaA.FAD2.a) was 9 and the activity (% mutagenesis) ([2]; BnaC.FAD2.a) was 9.8.

Sequence “TCGTCCCTTACTTCTCCTGGAAGTACGGCCATCGACGCCACCATTCCAA (double strand) [BnFAD2_T02 site in BnaC.FAD2.b (SEQ ID NO:17)]” has an activity (% mutagenesis) ([1]; BnaC.FAD2.b) of 5.5.

“TCTGGGTCATAGCCCACGAGTGCGGCCACCACGCCTTCAGCGACTACCA (double strand)” was tested, and the activity (% mutagenesis) ([3]; BnaA.FAD2.a, Westar protoplasts) was 3.8, the activity (% mutagenesis) ([3]; BnaC.FAD2.a, Westar protoplasts) was 4.4 and the activity (% mutagenesis) ([4]; BnaA.FAD2.a) was 2.2. For the same sequence, the activity (% mutagenesis) ([4]; BnaC.FAD2.a) was 2.8.

“TCTGGGTCATCGCCCACGAATGCGGCCACCACGCCTTCAGCGACCACCA (double strand) [BnFAD2_T05/T07 site in BnaC.FAD2.b (SEQ ID NO:14)]” was tested, and the activity (% mutagenesis) ([3]; BnaC.FAD2.b, printed as 23 but 1549/67387 reads = 2.3) was 2.3 and the activity (% mutagenesis) ([4]; BnaC.FAD2.b) was 2.6.

“TGCGAGACACCACCCTTCACTCTCGGAGACCTCAAGAAAGCAATCCCA (double strand) [BnFAD2_T03 site in BnaC.FAD2.b (SEQ ID NO:19)]” gave an activity (% mutagenesis) ([2]; BnaC.FAD2.b) of 10.

Sequence “TCCCTCACCCTCTCTCCTACTTCGCCTGGCCTCTCTACTGGGCCTGCCA (double strand) [BnFAD2_T01 site in BnaA/BnaC.FAD2.a (SEQ ID NO:8)]” has an activity (% mutagenesis) ([5]; BnaA.FAD2.a, 25 C, 2 days, half-sites not demarcated) of 8.3 and an activity (% mutagenesis) ([5]; BnaC.FAD2.a, 25 C, 2 days) of 10.

“TCCCCCACCCTCTCCCTTACCTCGCCTGGCCCCTCTACTGGGCCTGCCA (double strand) [BnFAD2_T01 site in BnaC.FAD2.b (SEQ ID NO:15)]” showed an activity (% mutagenesis) ([5]; BnaC.FAD2.b, mismatched site) of 1.9.
